Measured values published in PMC314469, “Protein Interaction Networks by Proteome Peptide Scanning” (PLoS Biology, 2004).

T1: Boi1 SH3 (BOI1_YEAST), P38041
T1 chain: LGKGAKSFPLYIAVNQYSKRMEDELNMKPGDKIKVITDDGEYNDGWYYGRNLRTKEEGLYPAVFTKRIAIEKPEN

T2: Boi2 SH3 (BOI2_YEAST), P39969
T2 chain: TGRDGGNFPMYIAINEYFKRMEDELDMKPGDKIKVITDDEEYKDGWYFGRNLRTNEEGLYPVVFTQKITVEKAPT

T3: Myo5 SH3 (MYO5_YEAST), Q04439
T3 chain: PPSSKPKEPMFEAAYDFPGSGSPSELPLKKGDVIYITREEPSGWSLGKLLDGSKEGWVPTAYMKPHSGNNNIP

T4: Rvs167 SH3 (RV167_YEAST), P39743
T4 chain: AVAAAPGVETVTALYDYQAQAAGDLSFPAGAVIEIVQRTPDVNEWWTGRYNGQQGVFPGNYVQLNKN

T5: Yfr024 SH3 (LSB3_YEAST), P43603
T5 chain: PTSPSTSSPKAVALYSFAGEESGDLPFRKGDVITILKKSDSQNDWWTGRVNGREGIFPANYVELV

T6: Yhr016c SH3 (YSC84_YEAST), P32793
T6 chain: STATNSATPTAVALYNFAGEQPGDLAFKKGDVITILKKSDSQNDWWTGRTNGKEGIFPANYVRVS


Target: T1, Boi1 SH3 (BOI1_YEAST), P38041
Assay: SPOT array

| Binder | normalised SPOT signal, Boehringer light units (BLU); mean over the file's lines of this peptide |
| --- | --- |
| MSWSKERPESPLSR [YDR265W 311-324] | 1020 |
| NEFAKFAPDLPVLK [YFR038W 287-300] | 24.4 |
| NAQLRKTPLEPGLE [YDL126C 668-681] | 156 |
| NAPERAVPILPPRN [YBR108W 539-552] | 3280 |
| NELIKQGPKRPTSA [YMR072W 36-49] | 462 |
| NAPPRIFPKAPIYG [YDR283C 1060-1073] | 8550 |
| MYGSKFIPFGPKSQ [YER038C 415-428] | 131 |
| NDLVKRFPEQPPLR [YBR195C 105-118] | 75800 |
| MTQPKKNPMEPKTD [YDL148C 252-265] | 37.8 |
| NDMAKPLPTPPTAE [YOR188W 2-15] | 71 |
| NDNEKKKPSSPTAA [YLL010C 80-93] | 212 |
| MTVPRNRPMAPFGT [YLR064W 1-14] | 1210 |
| NDDKKTEPDKPAFS [YJL041W 186-199] | 52.4 |
| MYDRKVIPRMPWHD [YKR031C 861-874] | 7810 |

Target: T2, Boi2 SH3 (BOI2_YEAST), P39969
Assay: SPOT array

| Binder | normalised SPOT signal, Boehringer light units (BLU); mean over the file's lines of this peptide |
| --- | --- |
| MSWSKERPESPLSR [YDR265W 311-324] | 104 |
| NEFAKFAPDLPVLK [YFR038W 287-300] | 12.3 |
| NAQLRKTPLEPGLE [YDL126C 668-681] | 88.8 |
| NAPERAVPILPPRN [YBR108W 539-552] | 83 |
| NELIKQGPKRPTSA [YMR072W 36-49] | 22 |
| NAPPRIFPKAPIYG [YDR283C 1060-1073] | 40.1 |
| MYGSKFIPFGPKSQ [YER038C 415-428] | 326 |
| NDLVKRFPEQPPLR [YBR195C 105-118] | 4920 |
| MTQPKKNPMEPKTD [YDL148C 252-265] | 76.8 |
| NDMAKPLPTPPTAE [YOR188W 2-15] | 54 |
| NDNEKKKPSSPTAA [YLL010C 80-93] | 61 |
| MTVPRNRPMAPFGT [YLR064W 1-14] | 55.2 |
| NDDKKTEPDKPAFS [YJL041W 186-199] | 17.3 |
| MYDRKVIPRMPWHD [YKR031C 861-874] | 395 |

Target: T3, Myo5 SH3 (MYO5_YEAST), Q04439
Assay: SPOT array

| Binder | normalised SPOT signal, Boehringer light units (BLU); mean over the file's lines of this peptide |
| --- | --- |
| MSWSKERPESPLSR [YDR265W 311-324] | 268 |
| NEFAKFAPDLPVLK [YFR038W 287-300] | 135 |
| NAQLRKTPLEPGLE [YDL126C 668-681] | 176 |
| NAPERAVPILPPRN [YBR108W 539-552] | 741 |
| NELIKQGPKRPTSA [YMR072W 36-49] | 176 |
| NAPPRIFPKAPIYG [YDR283C 1060-1073] | 168 |
| MYGSKFIPFGPKSQ [YER038C 415-428] | 290 |
| NDLVKRFPEQPPLR [YBR195C 105-118] | 21400 |
| MTQPKKNPMEPKTD [YDL148C 252-265] | 147 |
| NDMAKPLPTPPTAE [YOR188W 2-15] | 114 |
| NDNEKKKPSSPTAA [YLL010C 80-93] | 98.5 |
| MTVPRNRPMAPFGT [YLR064W 1-14] | 596 |
| NDDKKTEPDKPAFS [YJL041W 186-199] | 140 |
| MYDRKVIPRMPWHD [YKR031C 861-874] | 357 |

Target: T4, Rvs167 SH3 (RV167_YEAST), P39743
Assay: SPOT array

| Binder | normalised SPOT signal, Boehringer light units (BLU); mean over the file's lines of this peptide |
| --- | --- |
| MSWSKERPESPLSR [YDR265W 311-324] | 243 |
| NEFAKFAPDLPVLK [YFR038W 287-300] | 69 |
| NAQLRKTPLEPGLE [YDL126C 668-681] | 116 |
| NAPERAVPILPPRN [YBR108W 539-552] | 16500 |
| NELIKQGPKRPTSA [YMR072W 36-49] | 60.6 |
| NAPPRIFPKAPIYG [YDR283C 1060-1073] | 156 |
| MYGSKFIPFGPKSQ [YER038C 415-428] | 375 |
| NDLVKRFPEQPPLR [YBR195C 105-118] | 23000 |
| MTQPKKNPMEPKTD [YDL148C 252-265] | 181 |
| NDMAKPLPTPPTAE [YOR188W 2-15] | 56.7 |
| NDNEKKKPSSPTAA [YLL010C 80-93] | 80.7 |
| MTVPRNRPMAPFGT [YLR064W 1-14] | 187 |
| NDDKKTEPDKPAFS [YJL041W 186-199] | 47.9 |
| MYDRKVIPRMPWHD [YKR031C 861-874] | 1490 |

target: Sho1 SH3 (SHO1_YEAST), P40073; assay: SPOT array
Sequence (P40073 295-366): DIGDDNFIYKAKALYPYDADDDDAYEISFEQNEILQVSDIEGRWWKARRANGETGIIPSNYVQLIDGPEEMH

| Binder | normalised SPOT signal, Boehringer light units (BLU); mean over the file's lines of this peptide |
| --- | --- |
| MSWSKERPESPLSR [YDR265W 311-324] | 155 |
| NEFAKFAPDLPVLK [YFR038W 287-300] | 99.4 |
| NAQLRKTPLEPGLE [YDL126C 668-681] | 48.6 |
| NAPERAVPILPPRN [YBR108W 539-552] | 52.7 |
| NELIKQGPKRPTSA [YMR072W 36-49] | 32.2 |
| NAPPRIFPKAPIYG [YDR283C 1060-1073] | 140 |
| MYGSKFIPFGPKSQ [YER038C 415-428] | 145 |
| NDLVKRFPEQPPLR [YBR195C 105-118] | 12100 |
| MTQPKKNPMEPKTD [YDL148C 252-265] | 15.9 |
| NDMAKPLPTPPTAE [YOR188W 2-15] | 13000 |
| NDNEKKKPSSPTAA [YLL010C 80-93] | 39.5 |
| MTVPRNRPMAPFGT [YLR064W 1-14] | 186 |
| NDDKKTEPDKPAFS [YJL041W 186-199] | 26 |
| MYDRKVIPRMPWHD [YKR031C 861-874] | 569 |

Target: T5, Yfr024 SH3 (LSB3_YEAST), P43603
Assay: SPOT array

| Binder | normalised SPOT signal, Boehringer light units (BLU); mean over the file's lines of this peptide |
| --- | --- |
| MSWSKERPESPLSR [YDR265W 311-324] | 1750 |
| NEFAKFAPDLPVLK [YFR038W 287-300] | 132 |
| NAQLRKTPLEPGLE [YDL126C 668-681] | 371 |
| NAPERAVPILPPRN [YBR108W 539-552] | 24400 |
| NELIKQGPKRPTSA [YMR072W 36-49] | 246 |
| NAPPRIFPKAPIYG [YDR283C 1060-1073] | 2080 |
| MYGSKFIPFGPKSQ [YER038C 415-428] | 898 |
| NDLVKRFPEQPPLR [YBR195C 105-118] | 1590 |
| MTQPKKNPMEPKTD [YDL148C 252-265] | 404 |
| NDMAKPLPTPPTAE [YOR188W 2-15] | 710 |
| NDNEKKKPSSPTAA [YLL010C 80-93] | 36.9 |
| MTVPRNRPMAPFGT [YLR064W 1-14] | 466 |
| NDDKKTEPDKPAFS [YJL041W 186-199] | 63.4 |
| MYDRKVIPRMPWHD [YKR031C 861-874] | 1600 |

Target: T6, Yhr016c SH3 (YSC84_YEAST), P32793
Assay: SPOT array

| Binder | normalised SPOT signal, Boehringer light units (BLU); mean over the file's lines of this peptide |
| --- | --- |
| MSWSKERPESPLSR [YDR265W 311-324] | 168 |
| NEFAKFAPDLPVLK [YFR038W 287-300] | 7.9 |
| NAQLRKTPLEPGLE [YDL126C 668-681] | 79.9 |
| NAPERAVPILPPRN [YBR108W 539-552] | 36600 |
| NELIKQGPKRPTSA [YMR072W 36-49] | 17.2 |
| NAPPRIFPKAPIYG [YDR283C 1060-1073] | 186 |
| MYGSKFIPFGPKSQ [YER038C 415-428] | 118 |
| NDLVKRFPEQPPLR [YBR195C 105-118] | 1430 |
| MTQPKKNPMEPKTD [YDL148C 252-265] | 60.7 |
| NDMAKPLPTPPTAE [YOR188W 2-15] | 203 |
| NDNEKKKPSSPTAA [YLL010C 80-93] | 20.6 |
| MTVPRNRPMAPFGT [YLR064W 1-14] | 213 |
| NDDKKTEPDKPAFS [YJL041W 186-199] | 37.1 |
| MYDRKVIPRMPWHD [YKR031C 861-874] | 742 |
